Data set [1] deals with the molecule itself. The experiment in a line: DEER spectroscopy; one MTSSL spin label per subunit, inter-subunit distance distributions; pH 7.5 and pH 4.5; 83 K, Q-band; four-pulse protocol (five-pulse for position 374).
Data set [2] concerns the molecule itself. Briefly: crystal structure; lipidic cubic phase (monoolein with 10% cholesterol), without any antibody Fab fragment; 100 mM Tris pH 8.5, 100 mM sodium malonate, 30% PEG 400, 2.5% MPD; 16°C.

B1: WT CLC-ec1 (cysteine-less background) D417C, spin-labeled (natural protein, E. coli)
chain: MKTDTPSLETPQAARLRRRQLIRQLLERDKTPLAILFMAAVVGTLVGLAAVAFDKGVAWLQNQRMGALVHTADNYPLLLTVAFLASAVLAMFGYFLVRKYAPEAGGSGIPEIEGALEDQRPVRWWRVLPVKFFGGLGTLGGGMVLGREGPTVQIGGNIGRMVLDIFRLKGDEARHTLLATGAAAGLAAAFNAPLAGILFIIEEMRPQFRYTLISIKAVFIGVIMSTIMYRIFNHEVALIDVGKLSDAPLNTLWLYLILGIIFGIFGPIFNKWVLGMQDLLHRVHGGNITKWVLMGGAIGGLAGLLGFVAPATSGGGFNLIPIATAGNFSMGMLVFIFVARVITTLLSFSSGAPGGIFAPMLALGTVLGTAFGMVAVELFPQYHLEAGTFAIAGMGALLAASIRAPLTGIILVLEMTCNYQLILPMIITGLGATLLAQFTGGKPLYSAILARTLAKQEAEQLARSK
modifications: MTSSL spin label on the substituted cysteine at 417
notes: CLC-ec1, prokaryotic (E. coli) CLC Cl-/H+ exchange transporter, from plasmid pASK-CLC-ec1; Helix P; source: purified under reducing conditions, then labeled with MTSSL
As to B1, in data set [1], the binding result is recorded as “binds”.

B2: CLC-ec1 QQQ mutant (E148Q/E203Q/E113Q) (natural protein, E. coli)
chain: MKTDTPSLETPQAARLRRRQLIRQLLERDKTPLAILFMAAVVGTLVGLAAVAFDKGVAWLQNQRMGALVHTADNYPLLLTVAFLCSAVLAMFGYFLVRKYAPEAGGSGIPEIQGALEDQRPVRWWRVLPVKFFGGLGTLGGGMVLGRQGPTVQIGGNIGRMVLDIFRLKGDEARHTLLATGAAAGLAAAFNAPLAGILFIIEQMRPQFRYTLISIKAVFIGVIMSTIMYRIFNHEVALIDVGKLSDAPLNTLWLYLILGIIFGIFGPIFNKWVLGMQDLLHRVHGGNITKWVLMGGAIGGLCGLLGFVAPATSGGGFNLIPIATAGNFSMGMLVFIFVARVITTLLCFSSGAPGGIFAPMLALGTVLGTAFGMVAVELFPQYHLEAGTFAIAGMGALLAASIRAPLTGIILVLEMTDNYQLILPMIITGLGATLLAQFTGGKPLYSAILARTLAKQEAEQLARSKAAS
notes: CLC-ec1, prokaryotic (E. coli) CLC Cl-/H+ exchange transporter, from plasmid pASK-CLC-ec1; Helix A (N-terminal) has no density in the model; also called ClC-ec1 triple mutant (E113Q, E148Q, E203Q)
Consider B2, for which the binding result in data set [2] is recorded as “binds”.

B3: D417C/QQQ CLC-ec1 (cysteine-less background), spin-labeled (natural protein, E. coli)
chain: MKTDTPSLETPQAARLRRRQLIRQLLERDKTPLAILFMAAVVGTLVGLAAVAFDKGVAWLQNQRMGALVHTADNYPLLLTVAFLASAVLAMFGYFLVRKYAPEAGGSGIPEIQGALEDQRPVRWWRVLPVKFFGGLGTLGGGMVLGRQGPTVQIGGNIGRMVLDIFRLKGDEARHTLLATGAAAGLAAAFNAPLAGILFIIEQMRPQFRYTLISIKAVFIGVIMSTIMYRIFNHEVALIDVGKLSDAPLNTLWLYLILGIIFGIFGPIFNKWVLGMQDLLHRVHGGNITKWVLMGGAIGGLAGLLGFVAPATSGGGFNLIPIATAGNFSMGMLVFIFVARVITTLLSFSSGAPGGIFAPMLALGTVLGTAFGMVAVELFPQYHLEAGTFAIAGMGALLAASIRAPLTGIILVLEMTCNYQLILPMIITGLGATLLAQFTGGKPLYSAILARTLAKQEAEQLARSKAAS
modifications: MTSSL spin label on the substituted cysteine at 417
notes: as for B1
In the case of B3, the binding result in data set [1] is given as “binds”.

For the origin of these results see article PMC7253180, “A CLC-ec1 mutant reveals global conformational change and suggests a unifying mechanism for the CLC Cl^–/H^+ transport cycle” (eLife, 2020).
